Experimental findings from patent publication US20110212084A1 (AstraZeneca / MedImmune, published 2011) are described below.

In experiment [1] the target is T1, human IgEλ (U266 derived) (human, UniProt P01854 1-546). Nature of the experiment: cell-based or functional assay.
Experiment [2] deals with T2, cynomolgus IgE (recombinant chimaeric D12 variable region / cynomolgus IgE constant region) (cynomolgus monkey (constant region)). As to the kind of experiment: cell-based or functional assay.
The target in experiment [3] is T2, cynomolgus IgE (recombinant chimaeric …). Nature of the experiment: SPR, BIAcore 2000; cynomolgus IgE amine-coupled to CM5 chip, IgG as analyte, bivalent analyte model; geomean. How it is done:
(§1) The binding affinity of purified IgG samples of a representative number of clones to human and cynomolgus IgE was determined by surface plasmon resonance using BIAcore 2000 biosensor (BIAcore AB) essentially as described by Karlsson et al 1991; Journal of Immunological Methods 145 (1-2) 229-240. In brief, purified human or cynomolgus IgE was covalently coupled to the surface of a CM5 sensor chip (BIAcore) using standard amine coupling reagents according to the manufacturer's instructions to provide a surface density of 100 RU. IgG samples prepared in HBS-EP buffer (BIAcore (AB), at a range of concentrations, between 250 nM and 15.6 nM were passed over the sensor chip surface. The surface was regenerated using 10 mM Glycine, pH 1.75 between each injection of antibody. The resulting sensorgrams were evaluated using BIA evaluation 3.1 software and fitted to a bivalent analyte model, to provide relative binding data.

For experiment [4], the target named is T1, human IgEλ (U266 derived). Nature of the experiment: flow cytometry competition; IgG titrated, mixed with IgE (U266, 10 µg/mL), IgE binding to CD23 on IL-4 treated IM9 cells. How it is done: Some of these optimised antibodies were evaluated for inhibition of the IgE/CD23 interaction using the IM9 binding assay as previously described.
Antibody dilutions (667 nM to 1 nM) were prepared in U-bottomed polypropylene plates (Greiner) and mixed with IgE (U266-derived [Ikeyama et. al. 1986. Molecular Immunology 23 (2); p159-167]) to a final IgE concentration of 10 μg/mL for 30 minutes at room temperature. Cell plates were spun at 2000 rpm for 2 minutes and supernatant was aspirated, leaving the cell pellet intact. Cells were resuspended in 100 μL/well antibody/IgE mix and incubated on ice for 1 hour. Cell plates were centrifuged at 2000 rpm for 2 minutes and antibody/IgE supernatants were aspirated. Cells were washed by resuspending in 200 μL/well of Flow buffer and centrifuging as above.
IgE bound to the cell surface was detected with anti-IgE-phycoerythin (Caltag) diluted 1/30, v/v, 100 μL/well. Assay plates were incubated on ice for 20 minutes in the dark before centrifuging at 2000 rpm for 2 minutes and washing with 2×200 μL of Flow buffer as described above. Cells were resuspended in 100 μL Cell Fix (BD biosciences) and analysed using a FACSCalibur (BD Biosciences) to detect FL2 staining.

For experiment [5], the target named is T3, human IgE (source not stated for the assay) (human, UniProt P01854-1 1-428).
T3 construct: also called purified human IgE; IgE (Calbiochem or U266-derived)
T3 sequence (P01854 other isoform, or with tags, fused parts or gaps): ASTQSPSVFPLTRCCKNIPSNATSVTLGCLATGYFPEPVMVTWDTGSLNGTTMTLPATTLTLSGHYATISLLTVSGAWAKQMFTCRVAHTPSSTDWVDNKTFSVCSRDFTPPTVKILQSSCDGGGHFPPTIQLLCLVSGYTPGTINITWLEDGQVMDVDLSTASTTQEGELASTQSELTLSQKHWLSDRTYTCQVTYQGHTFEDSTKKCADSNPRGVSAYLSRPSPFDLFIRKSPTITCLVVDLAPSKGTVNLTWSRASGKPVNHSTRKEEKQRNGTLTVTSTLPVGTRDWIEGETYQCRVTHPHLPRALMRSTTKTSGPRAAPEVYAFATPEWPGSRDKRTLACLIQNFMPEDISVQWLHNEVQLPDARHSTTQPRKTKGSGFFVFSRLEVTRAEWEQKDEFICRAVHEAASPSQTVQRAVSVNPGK
Nature of the experiment: SPR, BIAcore 2000; IgE amine-coupled to CM5 chip, IgG as analyte, bivalent analyte model; geomean. How it is done:
as §1

For experiment [6], the target named is T3, human IgE (source not stated for the …). Nature of the experiment: cell-based or functional assay.
Experiment [7] addresses T4, human IgE Cε3-Cε4 domain, C-terminally tagged with FLAG His10 (human, UniProt P01854-1 209-428, limits assumed).
T4 construct: domain: Cε3-Cε4; secreted with murine IgG1 leader from HEK293-EBNA cells; also called human IgE Ce3-4; human IgE Cε3-Cε4 domain (in house HEK-EBNA derived)
As to the kind of experiment: DELFIA epitope competition; competitor vs biotinylated human IgE on immobilised IgG. How it is done:
(§2) Purified IgG were adsorbed onto 96-well Maxisorp microtitre plates (Nunc) in PBS at a concentration which gave a significant signal when biotinylated human IgE was added at approximately its estimated KD for that particular IgG. Excess IgG was washed away with PBS-Tween (0.1% v/v) and the wells were blocked with PBS-Marvel (3% w/v) for 1 h. […] To this series, an equal volume of biotinylated human IgE at a concentration of approximately the KD was added (resulting in a series starting at a ratio of competitor antigen:biotinylated human IgE of approximately 1000:1). These mixtures were then transferred onto the blocked IgG and allowed to equilibrate for 1 h. Unbound antigen was removed by washing with PBS-Tween (0.1% v/v), while the remaining biotinylated human IgE was detected by streptavidin-Europium3+ conjugate (DELFIA® detection, PerkinElmer). Time-resolved fluorescence was measured at 620 nm on an EnVision plate reader (PerkinElmer). Fluorescence data were analysed using either Graphpad Prism or Microsoft Excel software.

Experiment [8] addresses T5, Cynomolgus Cε3-4 FLAG His10 (cynomolgus monkey).
T5 construct: also called cynomolgus IgE Cε3-Cε4 domain (in house HEK-EBNA derived)
T5 chain: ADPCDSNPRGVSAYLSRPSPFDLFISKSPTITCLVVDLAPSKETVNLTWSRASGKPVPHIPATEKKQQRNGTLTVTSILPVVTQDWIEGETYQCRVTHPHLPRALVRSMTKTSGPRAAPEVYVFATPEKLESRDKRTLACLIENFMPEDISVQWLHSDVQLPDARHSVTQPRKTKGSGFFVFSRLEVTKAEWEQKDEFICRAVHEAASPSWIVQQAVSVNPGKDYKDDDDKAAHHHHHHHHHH
The description is as above. How it is done:
as §2

Experiment [9] addresses T1, human IgEλ (U266 derived). As to the kind of experiment: cell-based or functional assay. The source holds these as a separate data set.

T1 sequence (P01854 whole entry): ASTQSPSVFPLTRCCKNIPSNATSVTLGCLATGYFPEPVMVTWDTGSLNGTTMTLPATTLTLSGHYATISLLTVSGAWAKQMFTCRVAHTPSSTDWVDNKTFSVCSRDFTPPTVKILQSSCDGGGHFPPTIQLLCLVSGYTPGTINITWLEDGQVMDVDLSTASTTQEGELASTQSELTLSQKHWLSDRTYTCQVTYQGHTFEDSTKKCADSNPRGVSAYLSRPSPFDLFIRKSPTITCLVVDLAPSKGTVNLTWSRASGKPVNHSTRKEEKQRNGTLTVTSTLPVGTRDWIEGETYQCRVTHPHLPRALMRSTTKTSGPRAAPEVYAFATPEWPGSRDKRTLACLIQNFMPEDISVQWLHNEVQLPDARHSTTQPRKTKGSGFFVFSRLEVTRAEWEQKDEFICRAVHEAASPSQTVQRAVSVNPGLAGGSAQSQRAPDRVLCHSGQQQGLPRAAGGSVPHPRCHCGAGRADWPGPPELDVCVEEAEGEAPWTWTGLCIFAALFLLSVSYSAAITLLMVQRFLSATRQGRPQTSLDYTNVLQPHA
T4 sequence (P01854 other isoform, or with tags, fused parts or gaps limits assumed): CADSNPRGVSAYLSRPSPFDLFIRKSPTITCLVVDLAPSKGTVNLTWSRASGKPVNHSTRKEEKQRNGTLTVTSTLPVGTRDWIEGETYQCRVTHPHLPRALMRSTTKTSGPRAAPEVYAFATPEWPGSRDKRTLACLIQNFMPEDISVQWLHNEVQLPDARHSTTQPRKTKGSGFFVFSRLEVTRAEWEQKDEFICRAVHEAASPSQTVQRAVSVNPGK
T2 sequence (heavy, as listed by the source limits assumed, chain 1 of 2): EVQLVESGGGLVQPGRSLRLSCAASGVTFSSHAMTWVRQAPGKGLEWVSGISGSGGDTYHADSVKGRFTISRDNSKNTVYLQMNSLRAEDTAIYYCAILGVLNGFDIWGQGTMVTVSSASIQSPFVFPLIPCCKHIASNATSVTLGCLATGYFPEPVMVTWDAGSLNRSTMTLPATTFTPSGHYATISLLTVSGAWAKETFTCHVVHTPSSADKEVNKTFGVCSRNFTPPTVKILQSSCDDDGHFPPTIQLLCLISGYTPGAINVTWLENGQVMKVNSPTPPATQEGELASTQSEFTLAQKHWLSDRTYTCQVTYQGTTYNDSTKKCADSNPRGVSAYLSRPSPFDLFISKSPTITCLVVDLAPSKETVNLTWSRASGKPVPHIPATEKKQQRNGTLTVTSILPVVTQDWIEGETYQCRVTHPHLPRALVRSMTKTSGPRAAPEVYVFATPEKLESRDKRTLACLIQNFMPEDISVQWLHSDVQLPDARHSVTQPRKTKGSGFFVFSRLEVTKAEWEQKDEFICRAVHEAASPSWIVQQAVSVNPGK
T2 sequence (light, as listed by the source limits assumed, chain 2 of 2): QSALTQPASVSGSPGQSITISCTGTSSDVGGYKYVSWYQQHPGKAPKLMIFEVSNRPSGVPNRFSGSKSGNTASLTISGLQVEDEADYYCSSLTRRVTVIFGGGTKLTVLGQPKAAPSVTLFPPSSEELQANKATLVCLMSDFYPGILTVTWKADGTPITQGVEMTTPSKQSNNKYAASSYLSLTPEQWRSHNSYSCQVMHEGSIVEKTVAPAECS

B1: Antibody 33 (IgG) (antibody, V domains shown)
VH: EVQLLESGGGLVQPGGSLSLSCAAPGFTFSSYAMSWVRQAPGKGLEWVSAISGGSGGRTYYADSVKGRFTISKDNSKNTLYLQMNSLRAEDTAVYYCARHIAVAGTRGFDYWGRGTLVTVSS
VL: SYVLTQPPSVSVSPGQTASITCSGDKLGDTYASWYRQRSGLSPALVIYQDDKRPSGIPERFSGSNSGNTATLTISGTHTMDEADYYCLAWDTRTSGAVFGGGTKLTVL
As to B1, the “RBL-ER51 calcium signalling IC50 (nM) Geomean, human IgE 25 ng/ml” value in experiment [1] was determined as 0.112 nM. Moreover, in experiment [2], the “RBL-ER51 calcium signalling IC50 (nM) Geomean, cynomolgus IgE 100 ng/ml” value was found to be 5.1 nM. Moreover, the figures for the Kd in experiment [3] and in experiment [5] were 2.3 nM and 0.8 nM, respectively. This molecule displayed an IC50 in [4] of 83 nM.

B2: Antibody 1 (IgG) (antibody, V domains shown)
VH: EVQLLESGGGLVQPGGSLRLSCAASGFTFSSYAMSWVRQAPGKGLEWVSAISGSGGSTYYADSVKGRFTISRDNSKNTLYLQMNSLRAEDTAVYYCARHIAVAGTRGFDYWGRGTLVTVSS
VL: SYVLTQPPSVSVSPGQTASITCSGDKLGDKYASWYRQRSGQSPVLVIYQDDKRPSGIPERFSGSNSGNTATLTISGTHTMDEADYYCLAWDTRTSGAVFGGGTKLTVL
notes: also called parent antibody
For the molecule B2, the “RBL-ER51 calcium signalling IC50” value in experiment [6] turned out to be 267 nM. The binding result in [7] and in [8] was “no binding” each time.

B3: Antibody 33GL (germlined IgG) (antibody, V domains shown)
VH: EVQLLESGGGLVQPGGSLSLSCAAPGFTFSSYAMSWVRQAPGKGLEWVSAISGGSGGRTYYADSVKGRFTISKDNSKNTLYLQMNSLRAEDTAVYYCARHIAVAGTRGFDYWGRGTLVTVSS
VL: SYELTQPPSVSVSPGQTASITCSGDKLGDTYASWYQQKPGLSPALVIYQDDKRPSGIPERFSGSNSGNTATLTISGTQAMDEADYYCLAWDTRTSGAVFGGGTKLTVL
notes: germlined IgG; also called Antibody 35 (provisional application)
Take B3: in experiment [9], the “RBL-ER51 calcium signalling IC50 (nM) Human IgE Geomean” value was found to be 0.197 nM. The binding result in experiment [7] and in experiment [8] was “no binding” throughout. Also, in experiment [5], the Kd was 0.142 nM.
